Assay results from article PMC10776498.

Columns and labels:
[1] = western blot of GSDMD-N, HEK293T input; conditions: control: GSDMD-WT
[2] = western blot of GSDMD-N, HUVECs; conditions: glycan gained; control: HUVECs, LPS without TMG

Row | Protein | other: proteolytic processing ([1]; glycan lost, LPS + TMG) | other: proteolytic processing [2] | other: proteolytic processing ([1]; glycan gained, LPS without TMG)
1 | GSDMD (gasdermin-D): S338A (protein) parent chain: MGSAFERVVRRVVQELDHGGEFIPVTSLQSSTGFQPYCLVVRKPSSSWFWKPRYKCVNLSIKDILEPDAAEPDVQRGRSFHFYDAMDGQIQGSVELAAPGQAKIAGGAAVSDSSSTSMNVYSLSVDPNTWQTLLHERHLRQPEHKVLQQLRSRGDNVYVVTEVLQTQKEVEVTRTHKREGSGRFSLPGATCLQGEGQGHLSQKKTVTIPSGSTLAFRVAQLVIDSDLDVLLFPDKKQRTFQPPATGHKRSTSEGAWPQLPSGLSMMRCLHNFLTDGVPAEGAFTEDFQGLRAEVETISKELELLDRELCQLLLEGLEGVLRDQLALRALEEALEQGQSLGPVEPLDGPAGAVLECLVLSSGMLVPELAIPVVYLLGALTMLSETQHKLLAEALESQTLLGPLELVGSLLEQSAPWQERSTMSLPPGLLGNSWGEGAPAWVLLDECGLELGEDTPHVCWEPQAQGRMCALYASLALLSGLSQEPH | increases | – | –
2 | GSDMD (gasdermin-D): TMG (protein) parent chain: MGSAFERVVRRVVQELDHGGEFIPVTSLQSSTGFQPYCLVVRKPSSSWFWKPRYKCVNLSIKDILEPDAAEPDVQRGRSFHFYDAMDGQIQGSVELAAPGQAKIAGGAAVSDSSSTSMNVYSLSVDPNTWQTLLHERHLRQPEHKVLQQLRSRGDNVYVVTEVLQTQKEVEVTRTHKREGSGRFSLPGATCLQGEGQGHLSQKKTVTIPSGSTLAFRVAQLVIDSDLDVLLFPDKKQRTFQPPATGHKRSTSEGAWPQLPSGLSMMRCLHNFLTDGVPAEGAFTEDFQGLRAEVETISKELELLDRELCQLLLEGLEGVLRDQLALRALEEALEQGQSLGPVEPLDGPAGAVLECLVLSSGMLVPELAIPVVYLLGALTMLSETQHKLLAEALESQTLLGPLELVGSLLEQSAPWQERSTMSLPPGLLGNSWGEGAPAWVLLDECGLELGEDTPHVCWEPQAQGRMCALYASLALLSGLSQEPH | – | decreases | decreases
